# Measured values published in article PMC9965858.
# Legend:
# [1] = target: Dengue virus type 2 non-structural protein 1 (NS1) produced by DENV2-infected A549 cells (Dengue virus type 2) (UniProt P14340); assay: SDS-PAGE of samples heated or not heated, then Western blot
# [2] = target: recombinant DENV2-NS1^V5-tag (Dengue virus type 2) (UniProt P14340); assay: as above
Substance,stoichiometry N [1],stoichiometry N [2]
Dengue virus type 2 non-structural protein 1 (NS1) produced by DENV2-infected A549 cells (from UniProt P14340) (natural protein),2,
recombinant DENV2-NS1^V5-tag (from UniProt P14340 776-1127) (natural protein),,2
